According to the RNAGym collection of RNA variant scans (doi:10.1073/pnas.2313332121):
Variants at the floor of the assay were thinned out.

B1: TPR 5TU (parent)
chain: GGAUCUUCUCGAUCUAACAAAAAAGACAAAUCUGCCACAAAGCUUGAGAGCAUCUUCGGAUGCAGAGGCGGCAGCCUUCGGUGGCGCGAUAGCGCCAACGUUCUCAACUAUGACACGCAAAACGCGUGCUCCGUUGAAUGGAGUUUAUCAUG

Variants of: B1
Assay: polymerase ribozyme fitness, log enrichment relative to wild type (log ratio); higher = more active; in vitro selection for triplet polymerase activity
In short: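 Streptavidin-bead capture of gel-excised extended constructs, followed by RT-PCR, closed a single triplicate in vitro selection round. That round began by annealing PCR-built, transcribed mutant libraries of each subunit of a heterodimeric triplet polymerase ribozyme with a biotinylated primer, the partner subunit and triplets, then incubating them frozen at −7 °C. After Illumina sequencing of inputs and outputs, genotypes needed ≥10 input reads and ≥1 read per output. Fitness is the base-2 logarithm of genotype enrichment over wild-type enrichment, using inverse-variance-weighted replicate averages.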

Variant | polymerase ribozyme fitness (log ratio)
GGAUCUUCUCGAUCUAACAUAAAAGACAAAUCUGCCACAAAGCUUGAGAGCAACUUCGGAUGCAGAGGCGGCAGCCUUCGGUGGCGCGAUAGCGCCAACGUUCUCAACUAUGACACGCAAAACGCGUGCUCCGUUGAAUGGAGUUUAUCAUG | -2.36
GGAUCUUCUCGAUCUAACAUAAAAGACAAAUCUGCCACAAAGCUUGAGAGCAUCAUCGGAUGCAGAGGCGGCAGCCUUCGGUGGAGCGAUAGCGCCAACGUUCUCAACUAUGACACGCAAAACGCGUGCUCCGUUGAAUGGAGUUUAUCAUG | -3.29
GGAUCUUCUCGAUCUAACAUAAAAGACAAAUCUGCCACAAAGCUUGAGAGCAUCUUCGGAUGCAGAGGCGGCAACCUUCGGUGGCGCGAUAGCGCCAACGUUCUCAACUAUGACACGCAAAACGCGUGCUCCGUUGUAUGGAGUUUAUCAUG | ≤ -4.2
GGAUCUUCUCGAUCUAACAUAAAAGACAAAUCUGCCACAAAGCUUGAGAGCAACAUCGGAUGCAGAGGCGGCAGCCUUCGGUGGCGCGAUAGCGCCAACGUUCUCAACUAUGACACGGAAAACGCGUGCUCCGUUGAAUGGAGUUUAUCAUG | -3.98
GGAUCUUCUCGAUCUAACAUAAAAGACAAAUCUGCCACAAAGCUUGAAAACAUCUUCGGAUGCAGAGGCGGCAGCGUUCGGUGGCGCGAUAGCGCGAACGUUCUCAACUAUGACACGCAAAACGCGUGCUCCGUGGAAUGGAGUUUAUCAUG | ≤ -4.2
GGAUCUUCUCGAUCUAACAUAAAAGACAAAUCUGCCACAAAGCUUGAGAGCAUCUACGGAUGCAGAGGCGGCAGCCUUCGGUGGCGCGAUAGCGCCAACGUUCUCAACUAUGACACGCAAAACGCGUGCUCCGUUGAAUGGAGUUUAUCAUG | -1.87
GGAUCUUCUCGAUCUAACAUAAAAGACAAAUCUGCCACAAAGCUUGAGAGCAACUUCGGAUGCAGAGGCGGCAGCCUUCGGUGGCGCGAUAGCGCCAACGUUCUCAACUAUGACACGCAGAACGCGUGCUCCGUUGAAUGGAGUUUAUCAUG | -2.23
GGAUCUUCUCGAUCUAACAUAAAAGACAAACCUGCCACAACGCUUGAGAGAAUCUUCGGAUGCAGAGGCGGCAGCCUUCGGUGGCGCGAUAGCGCCAACGUUCUCAACUAUGACACGCAAAACGCGUGCUCCGUUGAAUGGAGUUUAUCAUG | -2.21
GGAUCUUCUCGAUCUAACAUAAAAGACAAAUCUGCCACAAAGCUUGAGAGCAUCAUCGGAUGCAGAGGCGGCAGCCUUCGGUGGCGCGAUAGCGCCAACGUUCUCAACUAUGACACGCAAAACGCGUGCUCCGUUGAAUGGAGUUUCUCAUG | -2.31
GGAUCUUCUCGAUCUAACAUAAAAGACAAAUCUGCCACAAAGCUUGAGAGCAUCUUCGGAUUCAGAGGCGGCAGCCUUCGGUGGCACGAUAGCGCCAACGUUCUCAUCUAUGACACGCAAAACGCGUGCUCCGUUGAAUAGAGUUUAUCAUG | ≤ -4.2
GGAUCUUCUCGAUCUAACAUAAAAGACAAAUCUGCCACAAAGCUAGAGAGCAUCUUCGGAUGCAGAGGCGGCAGCCUUCGGUGGCGGGAUAGCGCCAACGUUCUCAACUAUGACACGCAAAACGCGUGCUCCGUUGAAUGGAGUUUAUCAUG | -4.13
GGAUCUUCUCGAUCUAACAUAAAAGACAAAUCUGCCACAAAGCUUGAGAGCAUCUUCGGAUGCAGAGGCGGCAGCCUUCGGUUGCGCGAGAGCGCCAAAGUUCUCAUCUAUGACACGCAAAACGCGUGCUCCGUUGAAUGGAGUUUAACAUG | ≤ -4.2
GGAUCUUCUCGAUCUAACAUAAAAGACAAAUCUGCCACAAAGCUUCAGAGCAUCUACGGAUGCAGAGGCGGCAGCCUUCGGUGGCGCGAUAGCGCUAACGUUCUCAACUAUGACACGCAAAACGCGUGCUCCGUCGAAUGGAGUUUGUCAUG | ≤ -4.2
GGAUCUUCUCGAUCUAACAUAAAAGACAAACCUGCCACAAAGCUUGAGAGCAUCUUCGGAUGCAGAGGCGGCAGCCUUCGGUGGCGCGAUAGCGCCAACGUUCUCAACGAUGACACGCAAAACGCGUGCUCCGUUGAAUGGAGUUUAUCAUG | -0.957
GGAUCUUCUCGAUCUAACAUAAAAGACAAAGCUGCCACAAAGCUUGAGAGCAUCAUCGGAUGCAGAGGCGGCGGCCUUCGGUGGGGGGAUAGCGCCAACGUUCUCAACUAUGACACGCAAAACGCGUGCUCCGUCGAAUGGAGUUUACCAUG | ≤ -4.2
GGAUCUUCUCGAUCUAACAUAAAAGACAAAUCUGCCACAAAGCUUGAAAGCAUCUUCGGGUGCAGAGGCGGCAGCCUUCGGUGGCGCGAUAGCGCCAACGUUCUCAACUAUGACACGCAAAACGCGUGCUCCGUUGAAAGGCGUUUGUCAUG | ≤ -4.2
GGAUCUUCUCGAUCUAACAUAAAAGACAAACCUGCCACAAAGCUUGAGCGCAUCUUUGGGUCCAGAGGCGGCAGCCUUCGGUGGCGCGAUAGCGCAAACGUUCUCAACUAUGACACGCAAAACGCGUGCUCCGUUGAAUGGAGUUUAUCAUG | -4.15
GGAUCUUCUCGAUCUAACAUAAAAGACAAAUCUGCCACAAAGCUUGAGAACAUCUUCGGAUGCAGAGGCGGCAGCCUUCGGUGGCUCGAUAGCGCGAACGUUCUCAACUAUGACACGCAAAACGCGUGCUCCGUUGAAUGGAGUUUAUCAUG | ≤ -4.2
GGAUCUUCUCGAUCUAACAUAAAAGACAAAUCUGCCACAAAGCUAGAUAGCAUCUUCGGAUGCGGAGGCGGCAGCCUUCGGUGGCGCGAUAGCGCCAACGUUCUCAACUAUGACACGCAAAACGCGUGCUCCGUUGUAUGGAGUUUAUCAUG | ≤ -4.2
